The record followed here is publication PMC7264160.

In this experiment the target is Nascent polypeptide-associated complex (NAC) protein of Picrophilus torridus (Picrophilus torridus). Nature of the experiment: SEC; HiPrep S-200 HR column; elution compared with protein standards run on this column. In general terms: Size exclusion chromatography separates by hydrodynamic size, large species first.

“Nascent polypeptide-associated complex (NAC) protein of Picrophilus torridus (natural protein)”: the stoichiometry N (in general, a count of units in the complex or per binding partner) worked out at 2.
